{"source": "paper PMC4694755", "biological_target": "Mouse importin β (mouse) (UniProt P70168)", "sequence (P70168 whole entry)": "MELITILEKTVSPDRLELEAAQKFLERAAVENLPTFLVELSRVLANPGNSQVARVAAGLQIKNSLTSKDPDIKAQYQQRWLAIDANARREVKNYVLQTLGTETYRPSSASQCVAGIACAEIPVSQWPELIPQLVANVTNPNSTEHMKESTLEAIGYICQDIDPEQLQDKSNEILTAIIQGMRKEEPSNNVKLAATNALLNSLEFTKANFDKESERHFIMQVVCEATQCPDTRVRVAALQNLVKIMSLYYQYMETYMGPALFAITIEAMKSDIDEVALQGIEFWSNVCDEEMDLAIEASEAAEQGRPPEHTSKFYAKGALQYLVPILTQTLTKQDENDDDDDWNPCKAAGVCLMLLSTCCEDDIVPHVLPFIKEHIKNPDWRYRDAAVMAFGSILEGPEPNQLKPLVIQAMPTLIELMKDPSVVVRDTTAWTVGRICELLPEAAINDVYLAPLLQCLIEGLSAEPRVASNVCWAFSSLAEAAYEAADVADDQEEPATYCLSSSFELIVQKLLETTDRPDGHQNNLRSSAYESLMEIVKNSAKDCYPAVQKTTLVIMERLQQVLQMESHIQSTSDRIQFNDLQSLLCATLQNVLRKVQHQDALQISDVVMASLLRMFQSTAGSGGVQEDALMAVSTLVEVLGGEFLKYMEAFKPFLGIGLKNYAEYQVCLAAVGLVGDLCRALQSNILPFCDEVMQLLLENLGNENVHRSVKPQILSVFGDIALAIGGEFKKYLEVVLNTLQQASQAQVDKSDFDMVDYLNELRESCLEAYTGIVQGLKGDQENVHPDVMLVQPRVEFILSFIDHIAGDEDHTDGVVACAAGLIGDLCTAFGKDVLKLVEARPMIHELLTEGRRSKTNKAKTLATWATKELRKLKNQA", "assay": "SPR", "data": [{"substance": "human RanGTP (from UniProt P62826 1-216) (natural protein; other documents disagree on this pair)", "values": [{"measurement": "koff", "result": 0.00107, "unit": "s⁻¹"}, {"measurement": "kon", "result": 44400, "unit": "M⁻¹ s⁻¹"}]}]}
